Results reported in US20240309072A1 (Regeneron, published 2024).
Read-outs that look alike come from different tables or passages of the source.

Tests used:
Test in all cases: cell-based or functional assay
[1] = target: T1, SARS-COV-2 Spike, D614G (SARS-COV-2, UniProt P0DTC2 14-1273)
[2] = target: T1, SARS-COV-2 Spike, D614G; remark: listed apart in the source
[3] = target: T2, SARS-COV-2 Spike, Omicron variant BA.4/BA.5 (SARS-COV-2, UniProt P0DTC2 14-1273)
[4] = target: T3, SARS-COV-2 Spike, Omicron variant BA.2 (SARS-COV-2, UniProt P0DTC2 14-1273)
[5] = target: SARS-COV-2 Spike, Omicron variant BA.2.75 (SARS-COV-2, UniProt P0DTC2 14-1273)
[6] = target: SARS-COV-2 Spike, Omicron variant BA.2.12.1 (SARS-COV-2, UniProt P0DTC2 14-1273)
[7] = target: T2, SARS-COV-2 Spike, Omicron variant …; remark: listed apart in the source
[8] = target: T3, SARS-COV-2 Spike, Omicron variant BA.2; remark: listed apart in the source
[9] = target: T4, SARS-COV-2 Spike, Omicron variant BA.1 (SARS-COV-2, UniProt P0DTC2 14-1273)
[10] = target: T1, SARS-COV-2 Spike, D614G; remark: listed apart in the source
[11] = target: T4, SARS-COV-2 Spike, Omicron variant BA.1; remark: listed apart in the source

B1: REGN14256 (antibody, V domains shown)
VH: QVQLQESGPGLVKPSETLSLTCTVSGGSISSHYWSWIRQPPGKGLEWIGYIYYSGSSNYNPSLKSRVTISVDTSKNQFSLKLNSVTAADTAVYYCARHYDILTGFDWFDPWGQGTLVTVSS
VL: QSVLTQPPSVSGAPGQRVTISCTGSSSNIGTHYDVHWYQQLPGTAPKLLIYGNSNRPSGVPDRFSGSKSGTSASLAITGLQAEDEADYYCQSFDNSLTAPYVFGTGTKVTVL
[1]
  Fold Change over R10933 + R10987 against D614G: 0.77 fold
  pseudovirus neutralization IC50: 0.0114 nM

B2: REGN10933 + REGN10987 (other)
VH 1: QVQLVESGGGLVKPGGSLRLSCAASGFTFSDYYMSWIRQAPGKGLEWVSYITYSGSTIYYADSVKGRFTISRDNAKSSLYLQMNSLRAEDTAVYYCARDRGTTMVPFDYWGQGTLVTVSS
VL 1: DIQMTQSPSSLSASVGDRVTITCQASQDITNYLNWYQQKPGKAPKLLIYAASNLETGVPSRFSGSGSGTDFTFTISGLQPEDIATYYCQQYDNLPLTFGGGTKVEIK
VH 2: QVQLVESGGGVVQPGRSLRLSCAASGFTFSNYAMYWVRQAPGKGLEWVAVISYDGSNKYYADSVKGRFTISRDNSKNTLYLQMNSLRTEDTAVYYCASGSDYGDYLLVYWGQGTLVTVSS
VL 2: QSALTQPASVSGSPGQSITISCTGTSSDVGGYNYVSWYQQHPGKAPKLMIYDVSKRPSGVSNRFSGSKSGNTASLTISGLQSEDEADYYCNSLTSISTWVFGGGTKLTVL
[2]
  pseudovirus neutralization IC50: 0.012 nM
[3]
  Fold Change over R10933 + R10987 against D614G: 230 fold
  pseudovirus neutralization IC50: 3.37 nM
[1]
  Fold Change over R10933 + R10987 against D614G: 1 fold
  pseudovirus neutralization IC50: 0.0147 nM
[4]
  Fold Change over R10933 + R10987 against D614G: 326 fold
  pseudovirus neutralization IC50: 4.77 nM

B3: REGN10933 (antibody, V domains shown)
VH: QVQLVESGGGLVKPGGSLRLSCAASGFTFSDYYMSWIRQAPGKGLEWVSYITYSGSTIYYADSVKGRFTISRDNAKSSLYLQMNSLRAEDTAVYYCARDRGTTMVPFDYWGQGTLVTVSS
VL: DIQMTQSPSSLSASVGDRVTITCQASQDITNYLNWYQQKPGKAPKLLIYAASNLETGVPSRFSGSGSGTDFTFTISGLQPEDIATYYCQQYDNLPLTFGGGTKVEIK
[5]
  Fold Change over R10933 + R10987 against D614G: 148 fold
  pseudovirus neutralization IC50: 2.17 nM
[1]
  Fold Change over R10933 + R10987 against D614G: 1.98 fold
  pseudovirus neutralization IC50: 0.0291 nM

B4: REGN10987 (antibody, V domains shown)
VH: QVQLVESGGGVVQPGRSLRLSCAASGFTFSNYAMYWVRQAPGKGLEWVAVISYDGSNKYYADSVKGRFTISRDNSKNTLYLQMNSLRTEDTAVYYCASGSDYGDYLLVYWGQGTLVTVSS
VL: QSALTQPASVSGSPGQSITISCTGTSSDVGGYNYVSWYQQHPGKAPKLMIYDVSKRPSGVSNRFSGSKSGNTASLTISGLQSEDEADYYCNSLTSISTWVFGGGTKLTVL
[6]
  Fold change over R10987 against D614G: 279 fold
  pseudovirus neutralization IC50: 1.48 nM
[7]
  Fold change over R10987 against D614G: 176 fold
  pseudovirus neutralization IC50: 0.933 nM
[8]
  Fold change over R10987 against D614G: 199 fold
  pseudovirus neutralization IC50: 1.06 nM
[3]
  Fold Change over R10933 + R10987 against D614G: 236 fold
  pseudovirus neutralization IC50: 3.46 nM
[1]
  Fold Change over R10933 + R10987 against D614G: 0.89 fold
  pseudovirus neutralization IC50: 0.0131 nM
[4]
  Fold Change over R10933 + R10987 against D614G: 149 fold
  pseudovirus neutralization IC50: 2.18 nM

B5: REGN14315 (antibody, V domains shown)
VH: QVQLVQSGAEVKKPGSSVKVSCKASGDTFSTYAINWVRQAPGQGLEWMGRFIHIFGTANYAQKFQGRVTITADESTSTAYMELRSLRSEDTAVYYCARDGVDYGDYRPDYWGQGTLVTVSS
VL: EIVLTQSPGTLSLSPGERATLSCRASQSVSSNYLAWYQQKPGQAPRLLIYGASSRATGIPERFSGSGSGTDFTLTISRLEPEDFAVYYCQQYGSSLYTFGQGTKLEIK
[9]
  Fold change over R10987 against D614G: 1.03 fold
  pseudovirus neutralization IC50: 0.00547 nM
[6]
  Fold change over R10987 against D614G: 12.7 fold
  pseudovirus neutralization IC50: 0.0673 nM
[7]
  Fold change over R10987 against D614G: 9.38 fold
  pseudovirus neutralization IC50: 0.0497 nM
[10]
  Fold change over R10987 against D614G: 0.22 fold
  pseudovirus neutralization IC50: 0.00115 nM
[8]
  Fold change over R10987 against D614G: 6.78 fold
  pseudovirus neutralization IC50: 0.0359 nM
[11]
  Fold Change over R10933 + R10987 against D614G: 2.76 fold
  pseudovirus neutralization IC50: 0.0404 nM
[5]
  Fold Change over R10933 + R10987 against D614G: 87 fold
  pseudovirus neutralization IC50: 1.28 nM
[3]
  Fold Change over R10933 + R10987 against D614G: 10.8 fold
  pseudovirus neutralization IC50: 0.159 nM
[1]
  Fold Change over R10933 + R10987 against D614G: 0.6 fold
  pseudovirus neutralization IC50: 0.00878 nM
[4]
  Fold Change over R10933 + R10987 against D614G: 11.5 fold
  pseudovirus neutralization IC50: 0.168 nM

B6: REGN14315 + REGN10987 (other)
VH 1: QVQLVQSGAEVKKPGSSVKVSCKASGDTFSTYAINWVRQAPGQGLEWMGRFIHIFGTANYAQKFQGRVTITADESTSTAYMELRSLRSEDTAVYYCARDGVDYGDYRPDYWGQGTLVTVSS
VL 1: EIVLTQSPGTLSLSPGERATLSCRASQSVSSNYLAWYQQKPGQAPRLLIYGASSRATGIPERFSGSGSGTDFTLTISRLEPEDFAVYYCQQYGSSLYTFGQGTKLEIK
VH 2: QVQLVESGGGVVQPGRSLRLSCAASGFTFSNYAMYWVRQAPGKGLEWVAVISYDGSNKYYADSVKGRFTISRDNSKNTLYLQMNSLRTEDTAVYYCASGSDYGDYLLVYWGQGTLVTVSS
VL 2: QSALTQPASVSGSPGQSITISCTGTSSDVGGYNYVSWYQQHPGKAPKLMIYDVSKRPSGVSNRFSGSKSGNTASLTISGLQSEDEADYYCNSLTSISTWVFGGGTKLTVL
[9]
  Fold change over R10987 against D614G: 3.18 fold
  pseudovirus neutralization IC50: 0.0169 nM
[6]
  Fold change over R10987 against D614G: 21 fold
  pseudovirus neutralization IC50: 0.111 nM
[7]
  Fold change over R10987 against D614G: 20.7 fold
  pseudovirus neutralization IC50: 0.11 nM
[10]
  Fold change over R10987 against D614G: 0.7 fold
  pseudovirus neutralization IC50: 0.00368 nM
[8]
  Fold change over R10987 against D614G: 13.2 fold
  pseudovirus neutralization IC50: 0.0699 nM

B7: REGN14287 + REGN14315 (other)
VH 1: QVQLVQSGAEVKKPGSSVKVSCKASGGTFSNNAISWVRQAPGQGLEWMGKIIPILGIGGDAQKFQGRFTITADKSTSTAYMELSSLRSEDTAVYYCANSGDSRPHAFDIWGQGTMVTVSS
VL 1: QSALTQPASVSGSPGQSITISCTGTSSDVGSYNLVSWYQQHPGKAPKLMIYEVSKRPSGVSNRFSGSKSGNTASLTISGLQAEDEADYYCSSYAGSRREVFGGGTKLTVL
VH 2: QVQLVQSGAEVKKPGSSVKVSCKASGDTFSTYAINWVRQAPGQGLEWMGRFIHIFGTANYAQKFQGRVTITADESTSTAYMELRSLRSEDTAVYYCARDGVDYGDYRPDYWGQGTLVTVSS
VL 2: EIVLTQSPGTLSLSPGERATLSCRASQSVSSNYLAWYQQKPGQAPRLLIYGASSRATGIPERFSGSGSGTDFTLTISRLEPEDFAVYYCQQYGSSLYTFGQGTKLEIK
[11]
  Fold Change over R10933 + R10987 against D614G: 6.11 fold
  pseudovirus neutralization IC50: 0.0896 nM
[5]
  Fold Change over R10933 + R10987 against D614G: 20.5 fold
  pseudovirus neutralization IC50: 0.3 nM
[3]
  Fold Change over R10933 + R10987 against D614G: 14.9 fold
  pseudovirus neutralization IC50: 0.219 nM
[1]
  Fold Change over R10933 + R10987 against D614G: 0.76 fold
  pseudovirus neutralization IC50: 0.0111 nM
[4]
  Fold Change over R10933 + R10987 against D614G: 9.75 fold
  pseudovirus neutralization IC50: 0.143 nM

B8: REGN14287 (antibody, V domains shown)
VH: QVQLVQSGAEVKKPGSSVKVSCKASGGTFSNNAISWVRQAPGQGLEWMGKIIPILGIGGDAQKFQGRFTITADKSTSTAYMELSSLRSEDTAVYYCANSGDSRPHAFDIWGQGTMVTVSS
VL: QSALTQPASVSGSPGQSITISCTGTSSDVGSYNLVSWYQQHPGKAPKLMIYEVSKRPSGVSNRFSGSKSGNTASLTISGLQAEDEADYYCSSYAGSRREVFGGGTKLTVL
[11]
  Fold Change over R10933 + R10987 against D614G: 3.28 fold
  pseudovirus neutralization IC50: 0.0481 nM
[5]
  Fold Change over R10933 + R10987 against D614G: 3.94 fold
  pseudovirus neutralization IC50: 0.0578 nM
[3]
  Fold Change over R10933 + R10987 against D614G: 3.41 fold
  pseudovirus neutralization IC50: 0.05 nM
[1]
  Fold Change over R10933 + R10987 against D614G: 6.18 fold
  pseudovirus neutralization IC50: 0.0906 nM
[4]
  Fold Change over R10933 + R10987 against D614G: 1.94 fold
  pseudovirus neutralization IC50: 0.0284 nM
